The target in assay [1] is MLK3 peptide … (SEQ ID NO:76) after phosphorylation by PKC-theta (human). In words: pPKC Ab binding to biotinylated peptide on avidin-coated plate.
Assay [2] has as its target LIMK-2 peptide … (SEQ ID NO:121) (human). Described as above.
The target of assay [3] is LIMK-2 peptide … (SEQ ID NO:121) after phosphorylation by PKC-theta (human). The assay is described as above.
In assay [4] the target is MLK3 peptide … (SEQ ID NO:76) (human). The description is as above.
Assay [5] addresses SHP-1 phosphopeptide AHAKASRT-pS-SKHKEDVY (SEQ ID NO:291) (human). Put plainly: ELISA on phosphopeptides synthesized in microtiter wells. The settings on record: scale: normalized. Background: An ELISA detects its analyte on a solid surface through an enzyme-linked reagent.
The target of assay [6] is SHP-1 phosphopeptide PSEPGGVL-pS-FLDQINQR (SEQ ID NO:293) (human). Described as above. The note with it: scale: normalized.
Assay [7] has as its target SHP-1 phosphopeptide HAKASRTS-pS-KHKEDVYE (SEQ ID NO:294) (human). The assay is described as above. The settings on record: scale: normalized.
The target in assay [8] is SHP-1 phosphopeptide LKGRGVHG-pS-FLARPSRK (SEQ ID NO:299) (human). Described as above. The note with it: scale: normalized.
Assay [9] addresses SHP-1 phosphopeptide HGSFLARP-pS-RKNQGDFS (SEQ ID NO:300) (human). Described as above. The note with it: scale: normalized.
Assay [10] deals with SHP-1 phosphopeptide ADKEKSKG-pS-LKRK (SEQ ID NO:298) (human). The assay is described as above. The note with it: scale: normalized.
The target of assay [11] is SHP-1 phosphopeptide RVILQGRD-pS-NIPGSDYI (SEQ ID NO:290) (human). Described as above. The settings on record: scale: normalized.
For assay [12], the target named is SHP-1 phosphopeptide MKNAHAKA-pS-RTSSKHKE (SEQ ID NO:289) (human). Described as above. The settings on record: scale: normalized.
Assay [13] concerns the target SHP-1 phosphopeptide KNQGDFSL-pS-VRVGDQVT (SEQ ID NO:296) (human). The assay is described as above. The note with it: scale: normalized.
Assay [14] deals with SHP-1 phosphopeptide PLNCSDPT-pS-ERWYHGHM (SEQ ID NO:297) (human). The description is as above. The note with it: scale: normalized.
Assay [15] has as its target SHP-1 phosphopeptide KKKLEVLQ-pS-QKGQESEY (SEQ ID NO:292) (human). Described as above. The note with it: scale: normalized.
Assay [16] has as its target SHP-1 phosphopeptide PWTFLVRE-pS-LSQPGDFV (SEQ ID NO:295) (human). The description is as above. The note with it: scale: normalized.
For assay [17], the target named is MLK3 peptide … (SEQ ID NO:76) after phosphorylation by PKC-theta (human). Put plainly: pPKC Ab binding to biotinylated peptide on avidin-coated plate; signal after minus signal without PKC-theta.
The target in assay [18] is LIMK-2 peptide … (SEQ ID NO:121) after phosphorylation by PKC-theta (human). The description is as above.

The results in this text go back to patent publication US20050064507A1, “Determining kinase specificity” (priority 2003, published 2005).

Consider “phospho-PKC motif antibody (Phospho-(Ser) PKC Substrate Antibody, Cell Signaling Technology)”, for which the figures for the pPKC Ab Signal on peptide after exposure to PKC-theta phosphorylation in assay [1] and in assay [3] were 1.02 and 1.13, respectively. In addition, the pPKC Ab Signal on peptide without exposure to PKC-theta in [2] turned out to be 0.02; in [4] it was 0.07. Besides, the Binding of pPKC antibody was 12 in assay [5]; 9 in assay [6]; 7 in [7]; 54 in assay [8]; 39 in assay [9]; 100 in assay [10]. For the same substance, the Binding of pPKC antibody in [11] was 13; in assay [12] it was 18; in assay [13] it was 3; in assay [14] it was 0; in [15], 11; in assay [16], 5. Further, the pPKC Ab Signal amount dependent on PKC phosphorylation came out at 0.95 in assay [17] and 1.11 in assay [18].
